US20030120051A1 (SUGEN, published 2003)
Each block holds one binder with its values, some of them ahead of it.

Columns and labels:
human CASPR/p190 = target: T1, human CASPR/p190 (human, UniProt P78357 20-1384); assay: immunoprecipitation of IMR-32 lysates with CASPR/p190 antibodies, immunoblotting with contactin antibodies
T1 construct: Endogenous in IMR-32 neuroblastoma cells
T1 sequence: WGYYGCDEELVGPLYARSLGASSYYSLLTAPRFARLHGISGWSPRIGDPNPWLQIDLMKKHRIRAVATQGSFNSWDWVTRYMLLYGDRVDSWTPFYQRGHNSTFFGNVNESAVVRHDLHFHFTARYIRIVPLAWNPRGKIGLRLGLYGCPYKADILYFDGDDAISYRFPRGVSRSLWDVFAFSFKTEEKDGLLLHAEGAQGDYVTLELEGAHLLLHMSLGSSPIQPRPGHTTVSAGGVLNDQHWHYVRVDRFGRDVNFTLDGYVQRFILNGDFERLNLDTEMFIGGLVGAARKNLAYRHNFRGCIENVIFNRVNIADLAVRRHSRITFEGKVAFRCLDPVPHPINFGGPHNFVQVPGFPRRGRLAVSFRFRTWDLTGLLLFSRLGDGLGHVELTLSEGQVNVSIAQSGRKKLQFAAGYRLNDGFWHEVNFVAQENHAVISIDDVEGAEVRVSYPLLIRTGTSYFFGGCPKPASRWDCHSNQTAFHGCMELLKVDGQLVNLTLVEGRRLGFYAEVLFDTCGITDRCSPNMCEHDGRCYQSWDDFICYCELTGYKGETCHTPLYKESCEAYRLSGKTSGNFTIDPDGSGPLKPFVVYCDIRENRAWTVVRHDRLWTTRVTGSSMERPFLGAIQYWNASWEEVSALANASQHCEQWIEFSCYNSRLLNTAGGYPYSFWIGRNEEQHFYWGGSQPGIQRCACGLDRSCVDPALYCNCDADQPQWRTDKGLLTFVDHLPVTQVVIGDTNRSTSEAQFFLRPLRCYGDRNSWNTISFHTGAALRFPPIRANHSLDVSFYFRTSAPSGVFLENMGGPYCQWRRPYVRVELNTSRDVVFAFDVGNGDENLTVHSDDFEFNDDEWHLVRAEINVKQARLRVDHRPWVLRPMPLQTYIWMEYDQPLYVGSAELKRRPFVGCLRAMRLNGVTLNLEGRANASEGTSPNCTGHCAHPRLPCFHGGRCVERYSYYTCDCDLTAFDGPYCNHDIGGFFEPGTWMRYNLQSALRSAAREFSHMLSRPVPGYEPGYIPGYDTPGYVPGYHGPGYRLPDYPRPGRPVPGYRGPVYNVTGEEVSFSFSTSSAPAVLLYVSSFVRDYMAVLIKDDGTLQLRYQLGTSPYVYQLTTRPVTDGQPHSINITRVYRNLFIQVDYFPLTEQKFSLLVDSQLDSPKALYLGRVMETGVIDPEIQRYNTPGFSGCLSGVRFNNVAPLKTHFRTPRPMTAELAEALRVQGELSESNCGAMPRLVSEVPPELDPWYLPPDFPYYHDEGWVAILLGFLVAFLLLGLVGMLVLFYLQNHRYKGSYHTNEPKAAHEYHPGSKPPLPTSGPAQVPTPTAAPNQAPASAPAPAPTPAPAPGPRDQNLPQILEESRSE

human c-Src = human c-Src (human, UniProt P12931 2-536); assay: immunoprecipitation of transfected COS7 lysates with antibodies against c-Src, immunoblotting with anti-fusion antibodies
rat CASPR/p190 = target: T2, rat CASPR/p190 (rat, UniProt P97846 21-1381); assay: co-precipitation of p190 with contactin by the RPTPβ Fc fusion from GH3 membrane extracts
T2 construct: Endogenous in GH3 cells and rat brain, or expressed from pCM190R in COS7 cells; read from membrane lysates; no cleavage site stated; also called Contactin ASsociated PRotein; 190 kDa protein
T2 sequence: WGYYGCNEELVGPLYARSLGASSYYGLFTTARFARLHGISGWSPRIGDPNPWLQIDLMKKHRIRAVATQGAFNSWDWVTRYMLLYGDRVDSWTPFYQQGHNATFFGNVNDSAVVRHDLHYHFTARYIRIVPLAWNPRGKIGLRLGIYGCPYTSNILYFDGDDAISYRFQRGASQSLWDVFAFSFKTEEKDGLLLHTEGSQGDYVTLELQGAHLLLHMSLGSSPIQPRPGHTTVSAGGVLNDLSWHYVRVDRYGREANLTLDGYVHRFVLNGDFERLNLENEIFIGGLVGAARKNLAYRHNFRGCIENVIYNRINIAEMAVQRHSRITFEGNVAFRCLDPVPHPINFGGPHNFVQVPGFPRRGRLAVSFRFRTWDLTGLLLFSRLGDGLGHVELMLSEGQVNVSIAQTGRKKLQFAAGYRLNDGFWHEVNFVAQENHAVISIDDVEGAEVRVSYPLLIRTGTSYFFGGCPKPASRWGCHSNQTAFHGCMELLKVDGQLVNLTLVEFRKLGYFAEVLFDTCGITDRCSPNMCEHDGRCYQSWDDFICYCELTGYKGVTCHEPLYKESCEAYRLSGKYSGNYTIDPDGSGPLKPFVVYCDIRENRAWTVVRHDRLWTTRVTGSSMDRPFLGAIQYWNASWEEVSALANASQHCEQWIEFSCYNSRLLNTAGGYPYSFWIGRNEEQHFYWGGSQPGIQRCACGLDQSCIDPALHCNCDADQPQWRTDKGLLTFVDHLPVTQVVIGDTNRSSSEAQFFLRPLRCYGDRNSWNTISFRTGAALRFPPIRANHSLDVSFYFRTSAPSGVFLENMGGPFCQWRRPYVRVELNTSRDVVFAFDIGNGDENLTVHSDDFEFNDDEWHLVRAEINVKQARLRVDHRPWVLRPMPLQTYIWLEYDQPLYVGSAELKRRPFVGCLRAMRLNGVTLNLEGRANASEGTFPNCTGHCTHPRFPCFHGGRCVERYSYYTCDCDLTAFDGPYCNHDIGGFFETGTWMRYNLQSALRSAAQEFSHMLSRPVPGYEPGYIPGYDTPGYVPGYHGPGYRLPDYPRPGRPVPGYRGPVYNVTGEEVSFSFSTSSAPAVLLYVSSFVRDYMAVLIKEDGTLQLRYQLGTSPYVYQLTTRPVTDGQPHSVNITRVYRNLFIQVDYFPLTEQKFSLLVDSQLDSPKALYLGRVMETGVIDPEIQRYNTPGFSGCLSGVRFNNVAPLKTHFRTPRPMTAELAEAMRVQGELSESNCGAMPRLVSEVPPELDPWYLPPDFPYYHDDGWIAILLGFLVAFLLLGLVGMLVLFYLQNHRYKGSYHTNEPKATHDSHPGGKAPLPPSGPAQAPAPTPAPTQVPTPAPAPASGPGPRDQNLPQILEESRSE

- binding result (human CASPR/p190): binds
B1: human contactin of IMR-32 neuroblastoma cells (140 kDa protein) (receptor, UniProt Q12860 21-993, looked up)
chain: EFTWYRRYGHGVSEEDKGFGPIFEEQPINTIYPEESLEGKVSLNCRARASPFPVYKWRMNNGDVDLTSDRYSMVGGNLVINNPDKQKDAGIYYCLASNNYGMVRSTEATLSFGYLDPFPPEERPEVRVKEGKGMVLLCDPPYHFPDDLSYRWLLNEFPVFITMDKRRFVSQTNGNLYIANVEASDKGNYSCFVSSPSITKSVFSKFIPLIPIPERTTKPYPADIVVQFKDVYALMGQNVTLECFALGNPVPDIRWRKVLEPMPSTAEISTSGAVLKIFNIQLEDEGIYECEAENIRGKDKHQARIYVQAFPEWVEHINDTEVDIGSDLYWPCVATGKPIPTIRWLKNGYAYHKGELRLYDVTFENAGMYQCIAENTYGAIYANAELKILALAPTFEMNPMKKKILAAKGGRVIIECKPKAAPKPKFSWSKGTEWLVNSSRILIWEDGSLEINNITRNDGGIYTCFAENNRGKANSTGTLVITDPTRIILAPINADITVGENATMQCAASFDPALDLTFVWSFNGYVIDFNKENIHYQRNFMLDSNGELLIRNAQLKHAGRYTCTAQTIVDNSSASADLVVRGPPGPPGGLRIEDIRATSVALTWSRGSDNHSPISKYTIQTKTILSDDWKDAKTDPPIIEGNMEAARAVDLIPWMEYEFRVVATNTLGRGEPSIPSNRIKTDGAAPNVAPSDVGGGGGRNRELTITWAPLSREYHYGNNFGYIVAFKPFDGEEWKKVTVTNPDTGRYVHKDETMSPSTAFQVKVKAFNNKGDGPYSLVAVINSAQDAPSEAPTEVGVKVLSSSEISVHWEHVLEKIVESYQIRYWAAHDKEEAANRVQVTSQEYSARLENLLPDTQYFIEVGACNSAGCGPPSDMIEAFTKKAPPSQPPRIISSVRSGSRYIITWDHVVALSNESTVTGYKVLYRPDGQHDGKLYSTHKHSIEVPIPRDGEYVVEVRAHSDGGDGVVSQVKIS
modifications: GPI-anchored
notes: whole, on cells; also called p140

- binding result (human c-Src): binds
B2: HA-tagged rat CASPR/p190 (pCM190HA) (receptor, not shown: small tags and cut ends)
chain: WGYYGCNEELVGPLYARSLGASSYYGLFTTARFARLHGISGWSPRIGDPNPWLQIDLMKKHRIRAVATQGAFNSWDWVTRYMLLYGDRVDSWTPFYQQGHNATFFGNVNDSAVVRHDLHYHFTARYIRIVPLAWNPRGKIGLRLGIYGCPYTSNILYFDGDDAISYRFQRGASQSLWDVFAFSFKTEEKDGLLLHTEGSQGDYVTLELQGAHLLLHMSLGSSPIQPRPGHTTVSAGGVLNDLSWHYVRVDRYGREANLTLDGYVHRFVLNGDFERLNLENEIFIGGLVGAARKNLAYRHNFRGCIENVIYNRINIAEMAVQRHSRITFEGNVAFRCLDPVPHPINFGGPHNFVQVPGFPRRGRLAVSFRFRTWDLTGLLLFSRLGDGLGHVELMLSEGQVNVSIAQTGRKKLQFAAGYRLNDGFWHEVNFVAQENHAVISIDDVEGAEVRVSYPLLIRTGTSYFFGGCPKPASRWGCHSNQTAFHGCMELLKVDGQLVNLTLVEFRKLGYFAEVLFDTCGITDRCSPNMCEHDGRCYQSWDDFICYCELTGYKGVTCHEPLYKESCEAYRLSGKYSGNYTIDPDGSGPLKPFVVYCDIRENRAWTVVRHDRLWTTRVTGSSMDRPFLGAIQYWNASWEEVSALANASQHCEQWIEFSCYNSRLLNTAGGYPYSFWIGRNEEQHFYWGGSQPGIQRCACGLDQSCIDPALHCNCDADQPQWRTDKGLLTFVDHLPVTQVVIGDTNRSSSEAQFFLRPLRCYGDRNSWNTISFRTGAALRFPPIRANHSLDVSFYFRTSAPSGVFLENMGGPFCQWRRPYVRVELNTSRDVVFAFDIGNGDENLTVHSDDFEFNDDEWHLVRAEINVKQARLRVDHRPWVLRPMPLQTYIWLEYDQPLYVGSAELKRRPFVGCLRAMRLNGVTLNLEGRANASEGTFPNCTGHCTHPRFPCFHGGRCVERYSYYTCDCDLTAFDGPYCNHDIGGFFETGTWMRYNLQSALRSAAQEFSHMLSRPVPGYEPGYIPGYDTPGYVPGYHGPGYRLPDYPRPGRPVPGYRGPVYNVTGEEVSFSFSTSSAPAVLLYVSSFVRDYMAVLIKEDGTLQLRYQLGTSPYVYQLTTRPVTDGQPHSVNITRVYRNLFIQVDYFPLTEQKFSLLVDSQLDSPKALYLGRVMETGVIDPEIQRYNTPGFSGCLSGVRFNNVAPLKTHFRTPRPMTAELAEAMRVQGELSESNCGAMPRLVSEVPPELDPWYLPPDFPYYHDDGWIAILLGFLVAFLLLGLVGMLVLFYLQNHRYKGSYHTNEPKATHDSHPGGKAPLPPSGPAQAPAPTPAPTQVPTPAPAPASGPGPRDQNLPQILEESRSE
notes: Expressed in COS7 cells; also called tagged CASPR/p190; CASPR/p190 fusion proteins

- binding result (rat CASPR/p190): binds
B3: rat contactin (clone F8; p140 of GH3 cells) (receptor, UniProt Q63198 21-1001, looked up)
chain: EFTWHRRYGHGVSEEDKGFGPIFEEQPINTIYPEESLEGKVSLNCRARASPFPVYKWRMNNGDVDLTNDRYSMVGGNLVINNPDKQKDAGIYYCLASNNYGMVRSTEATLSFGYLDPFPPEDRPEVKVKEGKGMVLLCDPPYHFPDDLSYRWLLNEFPVFITMDKRRFVSQTNGNLYIANVESSDRGNYSCFVSSPSITKSVFSKFIPLIPIPERTTKPYPADIVVQFKDIYTMMGQNVTLECFALGNPVPDIRWRKVLEPMPTTAEISTSGAVLKIFNIQLEDEGLYECEAENIRGKDKHQARIYVQAFPEWVEHINDTEVDIGSDLYWPCVATGKPIPTIRWLKNGYAYHKGELRLYDVTFENAGMYQCIAENAYGTIYANAELKILALAPTFEMNPMKKKILAAKGGRVIIECKPKAAPKPKFSWSKGTEWLVNSSRILIWEDGSLEINNITRNDGGIYTCFAENNRGKANSTGTLVITNPTRIILAPINADITVGENATMQCAASFDPSLDLTFVWSFNGYVIDFNKEITNIHYQRNFMLDANGELLIRNAQLKHAGRYTCTAQTIVDNSSASADLVVRGPPGPPGGLRIEDIRATSVALTWSRGSDNHSPISKYTIQTKTILSDDWKDAKTDPPIIEGNMESAKAVDLIPWMEYEFRVVATNTLGTGEPSIPSNRIKTDGAAPNVAPSDVGGGGGTNRELTITWAPLSREYHYGNNFGYIVAFKPFDGEEWKKVTVTNPDTGRYVHKDETMTPSTAFQVKVKAFNNKGDGPYSLIAVINSAQDAPSEAPTEVGVKVLSSSEISVHWKHVLEKIVESYQIRYWAGHDKEAAAHRVQVTSQEYSARLENLLPDTQYFIEVGACNSAGCGPSSDVIETFTRKAPPSQPPRIISSVRSGSRYIITWDHVVALSNESTVTGYKILYRPDGQHDGKLFSTHKHSIEVPIPRDGEYVVEVRAHSDGGDGVVSQVKISGVSTLS
modifications: GPI-anchored
notes: whole, on cells; On transfected COS7 cells, on GH3 cells, in solubilized GH3 membranes or in rat brain membranes, as the entry says; also called rat homologue of contactin; F3/F11
